Measurements taken from patent US8026218 (UNIVERSITY OF ARIZONA, dated 2011).
Like-named read-outs stand apart in the source and are kept apart here. Bridge positions count the residues as written; N and C are the ends. Square brackets hold non-standard residues; d marks the D form. Ends that are not written are not given here. * marks the point of attachment. Glc = O-glucosyl on Ser side chain (Ser(OGlu)/Ser(OGlc)); NH(3,5-(CF3)2-benzyl) = FC(F)(F)c1cc(CN*)cc(C(F)(F)F)c1; OBzl(3,5-(CF3)2) = FC(F)(F)c1cc(CO*)cc(C(F)(F)F)c1; NH‑Bn(CF3)2 = C-terminal Bn(CF3)2 amide; Dmt = Cc1cc(O)cc(C)c1C[C@H](N)C(=O)O; Nle = CCCC[C@H](N)C(=O)O; NHBn = c1ccc(CN*)cc1

Key:
[1] = target: T1, human NK1 receptor (human, UniProt P25103 1-407); assay: competition vs [3H]Substance P, hNK1 CHO cell membranes
T1 construct: whole, on cells; membrane preparations of the transfected cells were used; also called hNK1; human neurokinin-1 receptor
T1 sequence (P25103 whole entry): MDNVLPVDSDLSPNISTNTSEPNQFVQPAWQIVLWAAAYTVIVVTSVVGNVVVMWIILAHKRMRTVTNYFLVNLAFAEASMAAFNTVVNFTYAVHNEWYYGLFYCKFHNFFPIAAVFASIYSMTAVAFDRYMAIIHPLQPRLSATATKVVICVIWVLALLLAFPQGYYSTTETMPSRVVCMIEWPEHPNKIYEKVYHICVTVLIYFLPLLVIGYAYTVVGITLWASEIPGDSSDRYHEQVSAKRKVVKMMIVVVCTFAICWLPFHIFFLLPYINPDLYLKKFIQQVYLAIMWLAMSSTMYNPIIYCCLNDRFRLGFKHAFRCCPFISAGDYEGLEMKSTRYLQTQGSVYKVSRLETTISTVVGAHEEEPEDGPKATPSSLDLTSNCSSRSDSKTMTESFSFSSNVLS

[2] = target: T2, rat NK1 receptor (rat, UniProt P14600 1-407); assay: competition vs [3H]Substance P, rNK1 CHO cell membranes
T2 construct: whole, on cells; membrane preparations of the transfected cells were used; also called rNK1; rNK-1
T2 sequence (P14600 whole entry): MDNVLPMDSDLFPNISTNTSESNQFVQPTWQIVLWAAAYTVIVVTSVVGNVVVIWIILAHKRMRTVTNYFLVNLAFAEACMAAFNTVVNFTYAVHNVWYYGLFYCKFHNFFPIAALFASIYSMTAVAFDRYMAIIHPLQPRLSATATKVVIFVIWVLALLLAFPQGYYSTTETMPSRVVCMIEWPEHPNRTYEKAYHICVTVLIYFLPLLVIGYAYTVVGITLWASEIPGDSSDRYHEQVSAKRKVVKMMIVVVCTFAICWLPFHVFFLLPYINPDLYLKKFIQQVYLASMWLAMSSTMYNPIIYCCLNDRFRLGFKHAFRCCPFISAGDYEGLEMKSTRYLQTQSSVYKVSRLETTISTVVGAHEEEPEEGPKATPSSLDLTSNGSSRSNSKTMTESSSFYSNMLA

[3] = target: guinea pig NK1 receptor (guinea pig, UniProt P30547 1-407); assay: cell-based or functional assay
Target sequence in this assay (P30547 whole entry): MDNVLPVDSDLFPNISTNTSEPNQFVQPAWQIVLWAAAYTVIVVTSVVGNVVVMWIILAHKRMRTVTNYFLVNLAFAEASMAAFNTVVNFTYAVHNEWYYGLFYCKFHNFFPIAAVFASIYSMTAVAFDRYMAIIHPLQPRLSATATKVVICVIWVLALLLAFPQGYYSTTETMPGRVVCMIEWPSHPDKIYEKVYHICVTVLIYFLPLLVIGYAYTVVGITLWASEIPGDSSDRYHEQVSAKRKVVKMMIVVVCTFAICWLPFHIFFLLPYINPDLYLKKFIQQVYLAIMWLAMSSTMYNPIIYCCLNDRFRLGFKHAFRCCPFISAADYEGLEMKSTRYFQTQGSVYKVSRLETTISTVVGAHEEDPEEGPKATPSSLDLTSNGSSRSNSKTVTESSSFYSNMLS

[4] = target: µ opioid receptor of the guinea pig isolated ileum (guinea pig, UniProt P97266 1-98); assay: cell-based or functional assay
Target sequence in this assay (P97266 whole entry): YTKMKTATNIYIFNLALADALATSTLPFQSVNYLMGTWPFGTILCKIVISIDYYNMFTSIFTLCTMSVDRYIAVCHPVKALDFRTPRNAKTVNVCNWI

[5] = target: T3, human NK1 receptor (human, UniProt P25103 1-407); assay: radioligand competition vs [3H]substance P, membranes of hNK1 CHO cells
T3 construct: whole, on cells; Used as membrane preparations of transfected CHO cells; also called hNK1; human neurokinin-1 receptor
T3 sequence (P25103 whole entry): as the sequence (P25103 whole entry) above

[6] = target: T4, rat NK1 receptor (rat, UniProt P14600 1-407); assay: radioligand competition vs [3H]substance P, membranes of rNK1 CHO cells
T4 construct: whole, on cells; Used as membrane preparations of transfected CHO cells; also called rNK1; rat neurokinin-1 receptor
T4 sequence (P14600 whole entry): as the sequence (P14600 whole entry) above

[7] = target: T1, human NK1 receptor; assay: competition vs [3H]Substance P, hNK1 CHO cell membranes; remark: listed apart in the source
[8] = target: T5, rat µ opioid receptor (rat, UniProt P33535 1-398); assay: competition vs [3H]DAMGO, rMOR cell membranes
T5 construct: whole, on cells; membrane preparations of the transfected cells were used; also called rMOR; MOR
T5 sequence (P33535 whole entry): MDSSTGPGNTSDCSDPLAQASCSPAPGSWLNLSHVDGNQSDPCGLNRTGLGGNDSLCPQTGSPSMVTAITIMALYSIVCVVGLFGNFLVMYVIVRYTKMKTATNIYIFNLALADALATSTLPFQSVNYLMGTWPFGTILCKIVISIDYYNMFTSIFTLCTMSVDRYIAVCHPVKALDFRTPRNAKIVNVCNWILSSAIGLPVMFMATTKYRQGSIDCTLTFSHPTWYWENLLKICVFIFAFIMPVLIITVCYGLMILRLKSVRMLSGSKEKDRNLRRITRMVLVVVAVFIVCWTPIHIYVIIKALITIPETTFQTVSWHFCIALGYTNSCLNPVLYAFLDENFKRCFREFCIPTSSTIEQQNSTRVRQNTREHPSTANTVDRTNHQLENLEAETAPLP

[9] = target: T6, human δ opioid receptor (human, UniProt P41143 1-372); assay: competition vs [3H]DPDPE, hDOR cell membranes
T6 construct: whole, on cells; membrane preparations of the transfected cells were used; also called hDOR; DOR
T6 sequence (P41143 whole entry, stated change not applied): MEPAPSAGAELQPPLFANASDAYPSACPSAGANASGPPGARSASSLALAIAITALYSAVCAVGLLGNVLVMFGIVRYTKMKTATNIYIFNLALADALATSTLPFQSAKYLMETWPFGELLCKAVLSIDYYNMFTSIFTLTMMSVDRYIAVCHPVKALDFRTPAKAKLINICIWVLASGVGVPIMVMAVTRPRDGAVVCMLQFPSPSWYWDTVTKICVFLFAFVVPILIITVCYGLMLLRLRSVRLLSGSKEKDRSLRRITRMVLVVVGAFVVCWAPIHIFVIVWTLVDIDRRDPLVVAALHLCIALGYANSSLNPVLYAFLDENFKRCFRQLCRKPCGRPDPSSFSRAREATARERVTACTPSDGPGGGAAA

[10] = target: T6, human δ opioid receptor; assay: cell-based or functional assay
[11] = target: T5, rat µ opioid receptor; assay: cell-based or functional assay
[12] = target: T5, rat µ opioid receptor; assay: competition vs [3H]DAMGO, rMOR cell membranes; remark: listed apart in the source
[13] = target: T5, rat µ opioid receptor; assay: cell-based or functional assay; remark: listed apart in the source
[14] = target: T2, rat NK1 receptor; assay: competition vs [3H]Substance P, rNK1 CHO cell membranes; remark: listed apart in the source
[15] = target: T5, rat µ opioid receptor; assay: competition vs [3H]DAMGO, rMOR cell membranes; remark: listed apart in the source
[16] = target: T6, human δ opioid receptor; assay: cell-based or functional assay; remark: listed apart in the source
[17] = target: T7, µ opioid receptor of the guinea pig isolated ileum (guinea pig, UniProt P97266 1-98); assay: cell-based or functional assay; remark: listed apart in the source
T7 sequence (P97266 whole entry): as the sequence (P97266 whole entry) above

[18] = target: T6, human δ opioid receptor; assay: cell-based or functional assay; remark: listed apart in the source
[19] = target: T5, rat µ opioid receptor; assay: cell-based or functional assay; remark: listed apart in the source
[20] = target: T7, µ opioid receptor of the guinea pig …; assay: cell-based or functional assay; remark: listed apart in the source
[21] = target: T8, guinea pig NK1 receptor (guinea pig, UniProt P30547 1-407); assay: cell-based or functional assay; remark: listed apart in the source
T8 sequence (P30547 whole entry): as the sequence (P30547 whole entry) above

[22] = target: T2, rat NK1 receptor; assay: competition vs [3H]Substance P, rNK1 CHO cell membranes; remark: listed apart in the source
[23] = target: T5, rat µ opioid receptor; assay: ratio of the Ki at rMOR to the Ki at hDOR
[24] = target: T5, rat µ opioid receptor; assay: competition vs [3H]DAMGO, rMOR cell membranes; remark: listed apart in the source
[25] = target: T1, human NK1 receptor; assay: competition vs [3H]Substance P, hNK1 CHO cell membranes; remark: listed apart in the source
[26] = target: T6, human δ opioid receptor; assay: competition vs [3H]DPDPE, hDOR cell membranes; remark: listed apart in the source
[27] = target: T8, guinea pig NK1 receptor; assay: cell-based or functional assay; remark: listed apart in the source
[28] = target: T6, human δ opioid receptor; assay: cell-based or functional assay; remark: listed apart in the source
[29] = target: T5, rat µ opioid receptor; assay: cell-based or functional assay; remark: listed apart in the source
[30] = target: T2, rat NK1 receptor; assay: competition vs [3H]Substance P, rNK1 CHO cell membranes; remark: listed apart in the source
[31] = target: T2, rat NK1 receptor; assay: as above; remark: listed apart in the source
[32] = target: T7, µ opioid receptor of the guinea pig …; assay: cell-based or functional assay; remark: listed apart in the source
[33] = target: T8, guinea pig NK1 receptor; assay: cell-based or functional assay; remark: listed apart in the source
[34] = target: T6, human δ opioid receptor; assay: competition vs [3H]DPDPE, hDOR cell membranes; remark: listed apart in the source
[35] = target: T1, human NK1 receptor; assay: competition vs [3H]Substance P, hNK1 CHO cell membranes; remark: listed apart in the source
[36] = target: T5, rat µ opioid receptor; assay: competition vs [3H]DAMGO, rMOR cell membranes; remark: listed apart in the source
[37] = target: T9, rat NK1 receptor (rat, UniProt P14600 1-407); assay: radioligand competition vs [3H]substance P; reference value of L-732,138 (around 460 nM) is a reported one
T9 construct: whole, on cells; Assayed as membrane preparations of transfected CHO cells; also called rNK1; rNK-1
T9 sequence (P14600 whole entry): as the sequence (P14600 whole entry) above

[38] = target: T10, rat µ opioid receptor (rat, UniProt P33535 1-398); assay: competition vs [3H]DAMGO, membranes of rMOR-transfected HN9.10 cells
T10 construct: whole, on cells; Assayed as membrane preparations of transfected cells; also called rMOR; MOR
T10 sequence (P33535 whole entry): as the sequence (P33535 whole entry) above

[39] = target: T11, human δ opioid receptor (human, UniProt P41143 1-372); assay: cell-based or functional assay; remark: listed apart in the source
T11 sequence (P41143 whole entry, stated change not applied): as the sequence (P41143 whole entry, stated change not applied) above

[40] = target: T10, rat µ opioid receptor; assay: cell-based or functional assay; remark: listed apart in the source
[41] = target: T11, human δ opioid receptor; assay: ratio of Ki at rMOR to Ki at hDOR
[42] = target: µ opioid receptor of the guinea pig isolated ileum (guinea pig); assay: cell-based or functional assay
[43] = target: T12, guinea pig NK1 receptor (guinea pig, UniProt P30547 1-407); assay: cell-based or functional assay; remark: listed apart in the source
T12 sequence (P30547 whole entry): as the sequence (P30547 whole entry) above

[44] = target: T11, human δ opioid receptor; assay: competition vs [3H]DPDPE, membranes of hDOR-transfected HN9.10 cells
[45] = target: T12, guinea pig NK1 receptor; assay: cell-based or functional assay; remark: listed apart in the source
[46] = target: T9, rat NK1 receptor; assay: competition vs [3H]substance P, membranes of rNK1-transfected CHO cells
[47] = target: T11, human δ opioid receptor; assay: competition vs [3H]DPDPE, hDOR membranes

B1: TyrDAlaGlyPheNleProLeuSer(OGlu)TrpNHBn(CF3)2 (peptide)
peptide: Y[dA]GF[Nle]PLS(Glc)W-{NH(3,5-(CF3)2-benzyl)}
notes: also called TY055
[1]
  Ki: 0.052 nM
[2]
  Ki: 34 nM

B2: TyrDAlaGlyPheNleProLeuSer(OGlu)TrpNHBn(CF3)2 (TY055) (peptide)
peptide: Y[dA]GF[Nle]PLS(Glc)W-{NH‑Bn(CF3)2}
[3]
  GPI/LMMP SP antagonist Ke: 8.4 nM
[4]
  GPI/LMMP opioid(mu) agonist IC50: 670 nM
[5]
  Ki: 0.052 nM
[6]
  Ki: 33.9 nM

B3: Tyr[DPenGlyPhePen]ProLeuTrpNHBn(CF3)2 (peptide)
peptide: YXGFXPLW
modifications: D-Pen at 2 and Pen at 5 (written X); disulfide 2-5; C-terminal NH-3,5-Bzl(CF3)2 amide
notes: cyclic; also called TY046
[7]
  Ki: 0.0053 nM
[8]
  Ki: 2330 nM
[9]
  Ki: 1.7 nM
[10]
  GTP binding EC50: 17.3 nM
[11]
  GTP binding EC50: 28.8 nM

B4: DmtDAlaGlyPheNleProSer(OGlu)TrpNHBn(CF3)2 (peptide)
peptide: [Dmt][dA]GF[Nle]PS(Glc)W-{NH(3,5-(CF3)2-benzyl)}
notes: also called TY056
[1]
  Ki: 0.0017 nM
[12]
  Ki: 1.9 nM
[13]
  GTP binding EC50: 44.9 nM
  GTP binding Emax: 66%

B5: TyrDAlaGlyPheNleProSer(OGlu)TrpNHBn(CF3)2 (peptide)
peptide: Y[dA]GF[Nle]PS(Glc)W-{NH(3,5-(CF3)2-benzyl)}
notes: also called TY041
[2]
  Ki: 14 nM
[14]
  Ki: 14 nM
[12]
  Ki: 8 nM
[15]
  Ki: 8 nM
[16]
  GTP binding EC50: 7.9 nM
  GTP binding Emax: 62%
[13]
  GTP binding EC50: 18 nM
  GTP binding Emax: 42%
[17]
  GPI/LMMP IC50: 517 nM
[18]
  GTP binding EC50: 7.9 nM
  GTP binding Emax: 62%
[19]
  GTP binding EC50: 18 nM
  GTP binding Emax: 42%
[20]
  GPI/LMMP IC50: 517 nM
[21]
  GPI/LMMP SP antagonist Ke: 1.8 nM

B6: Tyr[DPenGlyPheDPen]ProLeuTrpNHBn(CF3)2 (peptide)
peptide: YXGFXPLW
modifications: D-Pen at 2 and 5 (written X); disulfide 2-5; C-terminal NH-3,5-Bzl(CF3)2 amide
notes: cyclic; also called TY049
[7]
  Ki: 0.18 nM
[22]
  Ki: 4.54 nM

B7: Tyr[DCysGlyPheNleProDCys]TrpNHBn(CF3)2 (peptide)
peptide: Y[dC]GF[Nle]P[dC]W-{NH(3,5-(CF3)2-benzyl)}
modifications: disulfide 2-7
notes: cyclic; also called TY038; [D-Cys2, D-Cys7]TY027
[23]
  Ki(µ)/Ki(δ): 2.9
[24]
  Ki: 160 nM
  LogIC50: -8.8
[25]
  Ki: 0.25 nM
  LogIC50: -9.3
[26]
  Ki: 56 nM
  LogIC50: -6.9
[27]
  GPI Substance P antagonist Ke: 12 nM
[28]
  [35S]GTPγS binding EC50: 51 nM
  [35S]GTPγS binding Emax: 87%
  [35S]GTPγS binding LogEC50: -7.3
[29]
  [35S]GTPγS binding EC50: 22 nM
  [35S]GTPγS binding Emax: 12%
  [35S]GTPγS binding LogEC50: -7.7
[30]
  Ki: 7.1 nM
  LogIC50: -7.7

B8: DmtDAlaGlyPheMetProLeuTrpNHBn (peptide)
peptide: [Dmt][dA]GFMPLW-NHBn
notes: also called TY034
[31]
  Ki: 317 nM
[32]
  GPI/LMMP IC50: 11.4 nM
[33]
  GPI/LMMP Substance P antagonist Ke: 36.9 nM
[34]
  Ki: 0.1 nM
[35]
  Ki: 2.4 nM
[36]
  Ki: 0.14 nM

B9: H-Tyr-D-Ala-Gly-Phe-Phe-Pro-Leu-Trp-O-3,5-Bzl(CF3)2 (peptide)
peptide: H-Y[dA]GFFPLW-{OBzl(3,5-(CF3)2)}
modifications: also: TFA salt
notes: TFA salt; also called TY003
[37]
  fold improvement of rNK1 affinity over L-732,138: 25 fold
[38]
  Ki: 28.3 nM
  LogIC50: -7.22
[39]
  [35S]GTP-γ-S binding EC50: 20.8 nM
  [35S]GTP-γ-S binding Emax: 39%
  [35S]GTP-γ-S binding LogEC50: -7.68
[40]
  [35S]GTP-γ-S binding EC50: 58.7 nM
  [35S]GTP-γ-S binding Emax: 41%
  [35S]GTP-γ-S binding LogEC50: -7.23
[41]
  Ki(µ)/Ki(δ): 1.9
[42]
  GPI (µ) opioid agonist, % at 1 µM: 7 % at 1 µM
[43]
  Substance P GPI agonist (A50), contraction relative to KCl: 0 % at 1 µM
  Substance P GPI antagonist Ke: 14.4 nM
[44]
  Ki: 14.6 nM
  LogIC50: -7.5
[45]
  fold improvement of Ke in GPI tissue over L-732,138: 12 fold
[46]
  IC50: 19.3 nM
  LogIC50: -7.72

B10: Tyr[DCysGlyPheNleProDCys]TrpNHBn(CF3)2 (peptide)
peptide: Y[dC]GF[Nle]P[dC]W-{NH(3,5-(CF3)2-benzyl)}
modifications: disulfide 2-7
notes: also called TY038; TY38
[47]
  fold lower affinity than TY027: 85 fold
